From publication PMC4465062 come the findings set out here.

The data set addresses HOXD13 DNA binding domain (D13DBD) (Mus musculus, UniProt P70217). The data set is described as follows: NMR.

B1: HOXD13 duplex DNA (dsDNA)
DNA 1: CAACGTTAAAAC
DNA 2: GTTTTAACGTTG
With B1, the binding result is on record as “binds”.
